The values that follow come from IntAct's records for PubMed 10398681.

B1: Protein TRANSPORT INHIBITOR RESPONSE 1 (Arabidopsis thaliana (Mouse-ear cress)), Q570C0 (parent)
chain: MQKRIALSFPEEVLEHVFSFIQLDKDRNSVSLVCKSWYEIERWCRRKVFIGNCYAVSPATVIRRFPKVRSVELKGKPHFADFNLVPDGWGGYVYPWIEAMSSSYTWLEEIRLKRMVVTDDCLELIAKSFKNFKVLVLSSCEGFSTDGLAAIAATCRNLKELDLRESDVDDVSGHWLSHFPDTYTSLVSLNISCLASEVSFSALERLVTRCPNLKSLKLNRAVPLEKLATLLQRAPQLEELGTGGYTAEVRPDVYSGLSVALSGCKELRCLSGFWDAVPAYLPAVYSVCSRLTTLNLSYATVQSYDLVKLLCQCPKLQRLWVLDYIEDAGLEVLASTCKDLRELRVFPSEPFVMEPNVALTEQGLVSVSMGCPKLESVLYFCRQMTNAALITIARNRPNMTRFRLCIIEPKAPDYLTLEPLDIGFGAIVEHCKDLRRLSLSGLLTDKVFEYIGTYAKKMEMLSVAFAGDSDLGMHHVLSGCDSLRKLEIRDCPFGDKALLANASKLETMRSLWMSSCSVSFGACKLLGQKMPKLNVEVIDERGAPDSRPESCPVERVFIYRTVAGPRFDMPGFVWNMDQDSTMRFSRQIITTNGL

In this assay the parent is B1. The conditions noted are these: with skp1b_arath SKP1B.
MQKRIALSFAEEVLEHVFSFIQLDKDRNSVSLVCKSWYEIERWCRRKVFIGNCYAVSPATVIRRFPKVRSVELKGKPHFADFNLVPDGWGGYVYPWIEAMSSSYTWLEEIRLKRMVVTDDCLELIAKSFKNFKVLVLSSCEGFSTDGLAAIAATCRNLKELDLRESDVDDVSGHWLSHFPDTYTSLVSLNISCLASEVSFSALERLVTRCPNLKSLKLNRAVPLEKLATLLQRAPQLEELGTGGYTAEVRPDVYSGLSVALSGCKELRCLSGFWDAVPAYLPAVYSVCSRLTTLNLSYATVQSYDLVKLLCQCPKLQRLWVLDYIEDAGLEVLASTCKDLRELRVFPSEPFVMEPNVALTEQGLVSVSMGCPKLESVLYFCRQMTNAALITIARNRPNMTRFRLCIIEPKAPDYLTLEPLDIGFGAIVEHCKDLRRLSLSGLLTDKVFEYIGTYAKKMEMLSVAFAGDSDLGMHHVLSGCDSLRKLEIRDCPFGDKALLANASKLETMRSLWMSSCSVSFGACKLLGQKMPKLNVEVIDERGAPDSRPESCPVERVFIYRTVAGPRFDMPGFVWNMDQDSTMRFSRQIITTNGL [P10A]: the “effect of a mutation on the interaction” value was “decreasing interaction”.
